Data as given in US20210340232A1, “MONOCLONAL ANTIBODIES AGAINST HUMAN DICKKOPF3 AND USES THEREOF” (Board of Regents, The University of Texas System, priority 2018, published 2021).

Test system: BxPC3 cells
Experiment: BxPC3 Transwell migration in response to rhDKK3
Assay type: cell-based, human
Conditions: BxPC3, rhDKK3 10 μg/ml, 48 hours
Method: HPSCs and BxPC3 cells were treated with DKK3 mAb clones JM6-6-1 and JM8-12-1 or isotype control mAb or PBS. (FIGS. 5A-B) HPSC apoptosis and migration as measured by FACS and Transwell migration assay at 48 hours. (FIG. 5C) BxPC3 migration in response to rhDKK3 10 μg/ml as measured by Transwell migration assay at 48 hours. (FIG. 5D) BxPC3 resistance to gemcitabine 100 μM as measured by MTS proliferation assay at 6 days. HPSC-CM, pancreatic stellate cell conditioned media, 10 μg/ml. The orthotopic co-injection BxPC3+ HPSC model of PDAC was used to test the efficacy of DKK3 mAb clones JM6-6-1 or JM8-12-1 (5 mg/kg i.p. once every 5 days). (FIG. 5E) Overall tumor progression was measured every 3-4 days by IVIS imaging. (FIG. 5F) Metastatic tumors in the peritoneal cavity after removal of the primary pancreatic tumor are shown by IVIS imaging. (FIG. 5G) Kaplan Meier survival curve showing mice treated with DKK3 mAb clone JM8-12 (right-most line), control mAb (middle line), or PBS (left-most line). (FIG. 5H) KPC mice (P48-Cre; Kras LSL-G12D;Trp53fl/fl) with either wild type DKK3 (solid lines) or deficient in DKK3 (“DKK3-KO,” dashed lines) were treated with DKK3 mAb JM6-6-1 (5 mg/kg i.p. once every 5 days), PBS or control mAb. […]
Cell-based assays. Cell proliferation was measured by the MTS assay (Promega, Madison, Wis.). […]

B1: JM6-6-1: monoclonal antibody against human DKK3; heavy chain variable SEQ ID NO: 19, light chain variable SEQ ID NO: 20 (antibody, V domains shown)
VH: EVKLVESGGGLVKPGGSLKLSCAASGFTFTIEYMAWIRQTPEKRLEWVASISSGGDDIYYADNVKGRFTISRDNAKNTLYLQMSSLKSEDTAIYYCSRSLSDWGQGTTLTVSSAKTTPPSDYPLA
VL: MTQTPLSLPVSLGDQASISCRSSQSILHSNGHTYLEWYLQKPGQSPKLLIYKVSNRFSGVPDRFSGSGSGTDFTLKISRVEAEDLGVYYCFQGSHVPFTFGSGTKLEIERADAAQ
effect on DKK3-mediated induction of migration: reverse the DKK3-mediated induction of migration
